Results from article PMC7065722 (Biochemistry, 2019).

The compounds below were run on O=C(O)C[C@H](O)C(=O)O (assay: crystal structure). Conditions: [4Fe-4S] cluster active site, same binding mode as wild type.
Assay type: biochemical, Leishmania major

In order of falling Km:
1. LmFH-2-H334A (Leishmania major; H334A)  4.6 ± 0.1 mM
2. LmFH-2-T467A (Leishmania major; T467A)  4.4 ± 0.2 mM
3. LmFH-2-R471A (Leishmania major; R471A)  4.3 ± 0.2 mM
4. LmFH-2-R421A (Leishmania major; R421A)  4.1 ± 0.3 mM

In order of falling Vmax:
1. LmFH-2-H334A (Leishmania major; H334A)  52 µmol/min/mg
2. LmFH-2-R421A (Leishmania major; R421A)  0.13 µmol/min/mg
3. LmFH-2-T467A (Leishmania major; T467A)  0.047 µmol/min/mg
4. LmFH-2-R471A (Leishmania major; R471A)  0.034 µmol/min/mg

In order of falling kcat:
1. LmFH-2-H334A (Leishmania major; H334A)  57.6 ± 0.4 s⁻¹
2. LmFH-2-R421A (Leishmania major; R421A)  0.144 ± 0.002 s⁻¹
3. LmFH-2-T467A (Leishmania major; T467A)  0.052 ± 0.001 s⁻¹
4. LmFH-2-R471A (Leishmania major; R471A)  0.038 ± 0.001 s⁻¹

In order of rising kcat/Km:
1. LmFH-2-R471A (Leishmania major; R471A)  9 ± 1 M⁻¹ s⁻¹
2. LmFH-2-T467A (Leishmania major; T467A)  12 ± 1 M⁻¹ s⁻¹
3. LmFH-2-R421A (Leishmania major; R421A)  35 ± 3 M⁻¹ s⁻¹
4. LmFH-2-H334A (Leishmania major; H334A)  12500 ± 400 M⁻¹ s⁻¹

What follows are compounds tested against T1, LmFH-2 (cytosolic class I fumarate hydratase) (Leishmania major, UniProt E9AE57) (assay: crystal structure at […] Å). Conditions: not given.
T1 sequence (E9AE57 1-568): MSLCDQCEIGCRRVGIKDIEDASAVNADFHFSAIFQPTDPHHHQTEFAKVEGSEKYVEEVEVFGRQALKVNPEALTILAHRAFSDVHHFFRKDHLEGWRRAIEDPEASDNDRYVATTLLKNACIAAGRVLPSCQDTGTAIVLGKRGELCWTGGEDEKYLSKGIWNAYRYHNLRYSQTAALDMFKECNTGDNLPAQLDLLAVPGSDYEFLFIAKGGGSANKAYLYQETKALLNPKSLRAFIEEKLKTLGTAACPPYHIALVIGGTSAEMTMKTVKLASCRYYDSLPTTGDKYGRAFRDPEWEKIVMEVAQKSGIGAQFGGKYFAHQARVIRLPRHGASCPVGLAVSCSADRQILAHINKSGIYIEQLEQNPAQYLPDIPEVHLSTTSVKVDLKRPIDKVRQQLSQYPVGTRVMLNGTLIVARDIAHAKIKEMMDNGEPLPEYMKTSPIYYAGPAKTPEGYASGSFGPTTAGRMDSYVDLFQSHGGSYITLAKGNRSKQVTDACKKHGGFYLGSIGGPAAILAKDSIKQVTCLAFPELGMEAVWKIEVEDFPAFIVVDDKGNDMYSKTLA
Assay type: biochemical

In the case of `O=C(O)CCC(=O)O` [succinate], the IC50 is reported as 34.2 ± 1.2 mM.

What follows are compounds tested against T2, LmFH-2-R173A (Leishmania major, UniProt E9AE57, R173A) (assay: not given). Conditions: not given.
T2 sequence (E9AE57 1-568 R173A): T1 sequence (E9AE57 1-568)

With `O=C(O)/C=C/C(=O)O` [fumarate] the Km was 2.6 ± 0.6 mM.
